The values below are quoted from earlier work in paper PMC3290099.

For this data set, the target named is CIB1 (Homo sapiens) (UniProt Q99828).

pKd: −log10 of the molar value.

Sequence of UniProt Q99828 (Q99828 2-191): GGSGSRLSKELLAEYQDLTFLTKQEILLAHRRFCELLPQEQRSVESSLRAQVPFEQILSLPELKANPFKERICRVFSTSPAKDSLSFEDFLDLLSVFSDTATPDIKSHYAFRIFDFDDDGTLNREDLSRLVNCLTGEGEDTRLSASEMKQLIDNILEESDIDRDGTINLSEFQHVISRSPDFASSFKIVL

As usually defined, the pKd is the negative decadic logarithm of the Kd, by convention in mol/L. Take Integrin αIIb (from UniProt P08514): the pKd is 5.85.
